Among the data in PMC2745997 (Nature neuroscience, 2009) are fold increase in luciferase activity over mock transfected cells and Kd values, retold here.

One may read the Kd as a measure of binding affinity in units of concentration.

The target in one experiment is UNC-5/HA (C. elegans). The experiment can be described thus: LUMIER.
A further experiment addresses RCM-HA (in Cos-7 cells) ( (mammalian), UniProt O08747 41-931). The experiment can be described thus: radioligand binding.

Sequence of RCM-HA (in Cos-7 cells) (O08747 41-931): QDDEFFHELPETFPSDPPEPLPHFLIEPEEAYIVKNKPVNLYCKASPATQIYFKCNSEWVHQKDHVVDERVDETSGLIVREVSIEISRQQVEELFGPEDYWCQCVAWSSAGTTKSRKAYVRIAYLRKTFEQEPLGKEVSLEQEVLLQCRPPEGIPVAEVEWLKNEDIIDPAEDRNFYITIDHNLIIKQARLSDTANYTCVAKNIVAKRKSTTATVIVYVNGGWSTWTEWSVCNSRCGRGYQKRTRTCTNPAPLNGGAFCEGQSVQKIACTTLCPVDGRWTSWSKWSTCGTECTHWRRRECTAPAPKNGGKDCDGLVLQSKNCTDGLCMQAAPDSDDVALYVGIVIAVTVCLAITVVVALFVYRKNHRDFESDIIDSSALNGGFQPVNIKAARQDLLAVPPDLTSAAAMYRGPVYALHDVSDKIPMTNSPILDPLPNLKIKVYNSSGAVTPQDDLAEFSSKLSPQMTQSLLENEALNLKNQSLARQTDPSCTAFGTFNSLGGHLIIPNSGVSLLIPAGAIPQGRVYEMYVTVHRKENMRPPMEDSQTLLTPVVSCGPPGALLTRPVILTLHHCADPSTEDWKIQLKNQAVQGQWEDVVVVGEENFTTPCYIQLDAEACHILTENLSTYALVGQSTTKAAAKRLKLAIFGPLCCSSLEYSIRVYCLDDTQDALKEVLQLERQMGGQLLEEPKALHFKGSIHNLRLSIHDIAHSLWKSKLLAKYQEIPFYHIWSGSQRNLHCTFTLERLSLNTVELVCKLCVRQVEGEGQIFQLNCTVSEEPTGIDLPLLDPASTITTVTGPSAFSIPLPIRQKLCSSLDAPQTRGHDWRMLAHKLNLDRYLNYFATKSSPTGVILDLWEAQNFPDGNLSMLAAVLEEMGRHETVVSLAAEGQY
Sequence of UNC-5/HA (C. elegans) (Q26261 whole entry): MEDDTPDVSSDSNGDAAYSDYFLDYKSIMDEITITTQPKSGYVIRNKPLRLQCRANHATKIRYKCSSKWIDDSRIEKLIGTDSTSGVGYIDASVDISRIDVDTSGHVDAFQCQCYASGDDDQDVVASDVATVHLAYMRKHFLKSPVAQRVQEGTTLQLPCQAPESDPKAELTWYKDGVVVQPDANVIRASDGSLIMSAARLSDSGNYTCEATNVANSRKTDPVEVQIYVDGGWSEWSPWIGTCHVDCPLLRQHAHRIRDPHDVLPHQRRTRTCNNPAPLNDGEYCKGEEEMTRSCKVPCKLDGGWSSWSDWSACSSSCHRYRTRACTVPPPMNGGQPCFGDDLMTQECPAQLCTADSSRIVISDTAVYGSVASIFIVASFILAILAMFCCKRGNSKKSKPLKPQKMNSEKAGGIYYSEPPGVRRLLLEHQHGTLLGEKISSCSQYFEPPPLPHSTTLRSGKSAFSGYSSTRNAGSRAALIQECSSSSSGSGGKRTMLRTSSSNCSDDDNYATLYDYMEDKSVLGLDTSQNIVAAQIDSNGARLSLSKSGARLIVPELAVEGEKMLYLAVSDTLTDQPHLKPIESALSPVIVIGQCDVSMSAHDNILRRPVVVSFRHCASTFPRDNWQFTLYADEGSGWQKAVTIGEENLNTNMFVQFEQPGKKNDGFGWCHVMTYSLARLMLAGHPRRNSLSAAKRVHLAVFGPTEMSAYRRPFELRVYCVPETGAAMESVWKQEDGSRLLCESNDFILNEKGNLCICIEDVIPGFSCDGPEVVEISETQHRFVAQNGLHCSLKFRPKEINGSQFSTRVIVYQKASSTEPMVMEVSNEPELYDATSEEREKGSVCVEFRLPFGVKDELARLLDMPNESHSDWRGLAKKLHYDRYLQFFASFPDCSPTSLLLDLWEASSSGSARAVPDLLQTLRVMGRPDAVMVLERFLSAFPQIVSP

In turn, “Gluc-UNC-129 (from UniProt G5EBY8 19-407) (ligand)” had a fold increase in luciferase activity over mock transfected cells with UNC-5/HA (C. elegans) of 7 fold.

B1: 125I-BMP7 (ligand, UniProt P18075 293-431, looked up)
chain: STGSKQRSQNRSKTPKNQEALRMANVAENSSSDQRQACKKHELYVSFRDLGWQDWIIAPEGYAAYYCEGECAFPLNSYMNATNHAIVQTLVHFINPETVPKPCCAPTQLNAISVLYFDDSSNVILKKYRNMVVRACGCH
modifications: 125I label (iodinated)
B1: in the experiment with RCM-HA (in Cos-7 cells), the Kd is 4 nM.
